A short description of the series: protein stability index of a GFP-peptide fusion (GPS, HEK-293T) (PSI 1-6); higher = more stable.
Where [1] appears, read: treatment: DMSO, c terminus: a fixed tail appended.
[2] abbreviates: treatment: MLN4924 1 uM, 8 h, c terminus: a fixed tail appended.
[3] abbreviates: treatment: DMSO, c terminus: native.
[4] abbreviates: treatment: MLN4924 1 uM, 8 h, c terminus: native.

± gives the standard deviation.
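Further: 24-mer peptide tiles fused after GFP, lentivirally expressed, FACS-sorted into six equal bins by GFP/DsRed ratio, decoded by Illumina sequencing, PSI is the read-weighted mean bin number.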

On to DAFWWAVVSMTTVGYGDMYPVTIG [KCNA1], for which the protein stability index was found to be 3.45 ± 0.23 under setting [1] and 3.33 ± 0.49 under setting [2]. In the case of DALMKEQLVEMTGLSPRVIRVWFQ [ISL2], the protein stability index under setting [1] is 2.27 ± 0.27 and the protein stability index under setting [2] was 2.22 ± 0.12. For DCLEGKKSKHAPRGTHLWEFIRDI [ELF3] the same measures were 2.66 ± 0.2 and 2.66 ± 0.39. For DCRVDLGSEVYRMLREPAEPVAAE [PDLIM4] the same measures were 4.67 ± 0.05 and 4.76 ± 0.092. As for DCTETIEGLELTEQTFSPAKSLSF [ADD1], the protein stability index reads like this: under setting [1], 4.16 ± 0.36; under setting [2], 4.21 ± 0.26. DDEDEEEEDADCYDDDDSGNEES [UBE2R2]: the protein stability index under setting [3] was 5.57 ± 0.33 and the protein stability index under setting [4] was 5.57 ± 0.084. Turning to DEAKKFHLRPELRSQMQGPRTRAR [KLHL12], the protein stability index amounted to 4.8 ± 0.1 under setting [1] and 4.67 ± 0.42 under setting [2]. On to DEDELRKSLSELVDDKFGTGTKKV [PSD2], for which the protein stability index by setting is: under setting [1], 5.2 ± 0.15; under setting [2], 5.4 ± 0.21. As to DEEHMEEAITSASFLEQIMAPLQP [FAM189A2], the protein stability index was determined as 4.74 ± 0.18 under setting [1] and 4.96 ± 0.19 under setting [2]. For DELTLARTDLEMQIEGLNEELAYL [KRT15] the same measures were 4.1 ± 0.21 and 4.42 ± 0.36. In the case of DENERDLMHIAHIAELLEVFDLRM [RHOBTB2], the protein stability index under setting [1] was found to be 2.63 ± 0.11 and the protein stability index under setting [2] is 2.7 ± 0.34. On the same counts, the results for DGAGKTPTLGGGFHVNLGKESRAQ [BRF1] are 4.63 ± 0.14 and 4.77 ± 0.34. On to DGAPALCPSPEALSPEPPVYSLQD [PRKX], for which the protein stability index is, setting by setting: under setting [1], 5.37 ± 0.098; under setting [2], 5.21 ± 0.15. On to DISMEIPQEFQKTVSTMYYLWMCS [SCAMP3], for which the protein stability index by setting is: under setting [1], 2.28 ± 0.54; under setting [2], 2.38 ± 0.39.

As to DKEGYNSIHYAAAYGHRQCLELVS [ANKRD44], the protein stability index by setting is: under setting [1], 2.42 ± 0.14; under setting [2], 2.59 ± 0.21.

Consider DLDACALVRGHRRRLLRRLSPSRG [ZSWIM9], for which the protein stability index is, setting by setting: under setting [1], 4.11 ± 0.46; under setting [2], 4.12 ± 0.29. For DLDNYFTARRLLSQVRALDRFQVP [NFE2L1] the same measures were 2.5 ± 0.2 and 2.35 ± 0.3. For DLHKMNHVTPPNVSLGATGGPPAG [JUNB] the same measures were 4.38 ± 0.19 and 4.39 ± 0.078. For DLKLRKFVFSTEERTQLRLESLED [TRIB1] the same measures were 3.74 ± 0.1 and 4.2 ± 0.43. As to DLYNWEVAIFGPPNTYYEGGYFKA [CDC34], the protein stability index by setting is: under setting [1], 2.65 ± 0.5; under setting [2], 2.51 ± 0.95. DMAGDWHWALRVTPGLGVVAVLLL [SPNS1]: the protein stability index was found to be 2.82 ± 0.41 under setting [1] and 2.5 ± 0.48 under setting [2]. Consider DNILSLINVNDLSFVTGSHVGELI [WDR41], for which the protein stability index came to 2.36 ± 0.32 under setting [1] and 2.63 ± 0.31 under setting [2]. On the same counts, the results for DNVRSLKVESGAWIGYEHTSFCGQ [CRYBA1] are 3.14 ± 0.2 and 3.07 ± 0.22. For the sequence DPALRRRRRGPRNKKRGWRRLAQE [NOP53], the protein stability index reads like this: under setting [1], 4.73 ± 0.3; under setting [2], 4.92 ± 0.24. With DPDVGVNSLQSYQLSPNKHFSLRV [PCDHGA10], the protein stability index reads like this: under setting [1], 2.6 ± 0.25; under setting [2], 2.51 ± 0.24. For DPRYNKWMQVASLNEKRTFFHLSA [KLHL13] the same measures were 2.36 ± 0.32 and 2.12 ± 0.13. On to DPSKRALSRDTVQESYENVDSLES [ZNF263], for which the protein stability index is 5.51 ± 0.065 under setting [1] and 5.56 ± 0.18 under setting [2]. In the case of DQGDEGKEGRPGIPGLPGLRGLPG [SCARA5], the protein stability index reads like this: under setting [1], 5 ± 0.13; under setting [2], 4.93 ± 0.29. Consider DQPMGGWEMIRKIGDTSVSYKYTS [LMNB1], for which the protein stability index under setting [1] was 3.1 ± 0.31 and the protein stability index under setting [2] was found to be 3.2 ± 0.28. Consider DRFSGETSAAALSPMSAATLGGLN [SMTNL2], for which the protein stability index by setting is: under setting [1], 4.46 ± 0.14; under setting [2], 4.21 ± 0.24. Turning to DRGGWGISPRGAGYTFGQDISETF [PPP2CA], the protein stability index under setting [1] is 3.21 ± 0.18 and the protein stability index under setting [2] stood at 3.3 ± 0.34. Sequence DRGKDSVEILMILFAFMLVYPKEF [PPEF2] yielded a protein stability index under setting [1] of 2.97 ± 0.19 and a protein stability index under setting [2] of 2.71 ± 0.61.

Sequence DRHGVYGLQRNLLVENIIDIYKQE [TRIM63] showed a protein stability index under setting [1] of 3.2 ± 0.32 and a protein stability index under setting [2] of 3.39 ± 0.24. On the same counts, the results for DSFTTNKEHAVTMPCTWVMACAYA [GNB5] are 2.73 ± 0.79 and 2.53 ± 0.58. On the same counts, the results for DSLPMDAYTHGCILHPELTVDSMI [GDAP1] are 3.29 ± 0.26 and 3.47 ± 0.11.

For the sequence DSRRVTKENSHQVKEELSQKFDTL [TRIM63], the protein stability index was determined as 5.08 ± 0.066 under setting [1] and 5.02 ± 0.28 under setting [2]. Regarding DSTTTRQRRSRQNPQSPPQDSSVT [HDAC6], the protein stability index turned out to be 5.13 ± 0.24 under setting [1] and 5.53 ± 0.098 under setting [2]. For DVDLLDSKVIEILDSQTEIYQYVQ [DLC1] the same measures were 3.41 ± 0.31 and 3.62 ± 0.38. DVELLQDLGDIVARSESVLLHMPQ [TRIM43]: the protein stability index stood at 3.18 ± 0.2 under setting [1] and 3.25 ± 0.35 under setting [2]. Turning to DVGDWRKNIEEKSGMEGRKKMFES [TNNI2], the protein stability index reads like this: under setting [1], 4.3 ± 0.14; under setting [2], 4.38 ± 0.25. DVSLVGGPADCSPPHPAPAPQHPA [DYRK1B] had a protein stability index under setting [1] of 5.02 ± 0.16 and a protein stability index under setting [2] of 5.14 ± 0.12. Regarding DWRKNIEEKSGMEGRKKMFESES [TNNI2], the protein stability index is, setting by setting: under setting [3], 3.04 ± 0.93; under setting [4], 3.86 ± 0.92. On to EAAEAVRPEERKTCRNPACGPQWE [ADAMTSL2], for which the protein stability index is, setting by setting: under setting [1], 4.8 ± 0.27; under setting [2], 4.74 ± 0.21. For EAFRLKQQLHARYVLNLLYETKKH [PPEF2] the same measures were 2.5 ± 0.61 and 2.36 ± 0.33.

For ECSYTSADGQRHHSKLLVSGFWGV [DHCR7], the protein stability index reads like this: under setting [1], 2.09 ± 0.1; under setting [2], 2.17 ± 0.31. For EDEDIYKLRHDLKKTSITQQPSKH [PLK2], the protein stability index is, setting by setting: under setting [1], 4.98 ± 0.35; under setting [2], 5.1 ± 0.13. On the same counts, the results for EDEDPEEMPKSSDFLIHPPERSDL [PCDHGC5] are 5.41 ± 0.13 and 5.4 ± 0.24.

EDHLAVKHFSVEGQLEFRALLFIP [HSP90AB1] showed a protein stability index under setting [1] of 1.57 ± 0.54. Turning to EDQVVVNKAAVMVHQLSKKEASRH [CTNNB1], the protein stability index is, setting by setting: under setting [1], 4.82 ± 0.25; under setting [2], 4.8 ± 0.22. On the same counts, the results for EEFAAGPAQSGILSDREVVNLFLH [BTBD1] are 3.16 ± 0.56 and 3.46 ± 0.22. For EEPELSPAYLISEAMRRSRMSLYC [GFOD1] the same measures were 2.43 ± 0.23 and 2.37 ± 0.3. On to EFLGNRSVILNHMAREHAFNIGLP [ZNF277], for which the protein stability index is, setting by setting: under setting [1], 2.21 ± 0.19; under setting [2], 2.26 ± 0.2. For the sequence EFLWGPRAHAEIRKMSLLKFLAKV [MAGEA10], the protein stability index by setting is: under setting [1], 2.38 ± 0.3; under setting [2], 2.66 ± 0.17.
